The domain aggregation screens of Martell et al. (2025)

assay: soluble fraction after stress (log2 fold change); higher = more stays soluble; pooled small domains, quantitative proteomics; conditions: stress: 50 degC
In short: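 Quantitative proteomics served as the high-throughput read-out for pooled custom libraries of small protein domains. Each was stressed at 50°C. Aggregation propensity is expressed as the base-two log fold change in soluble protein after stress. A higher value means a larger share of the protein remains in solution.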

Sequence	soluble fraction (log2)
HMSRVHHGFNISIARNRKGLKQAALADMLGISQQRLSQLENQRVVKDEILEKVSEATGVSVEDLKTIE	-0.253
HMAAEPDQQLIKPASDPVLRTMKIEELMKMSEQVKIQMSKAAKNFDYLEAARLRDEHFALENLIKLRS	0.108
HMSDEINYVIQINGKNRAEAEFGANLDKESIENLALEHERIKELLNGLTVRKIIVVPKKLVNIVA	-0.312
HMKETLSINSTDFEVRRSSRRKRISVGFDTGTETFFIAAPTKLAGTDILRILGPQISRLMDRLT	-1.95
HMEWGEADFVRLDEALATLRTLSPRQAEVVDLRFFSELSLEETAATLGLSLATVKRDWSVARLYLQRALS	0.0743
HMTVTTDITQYFLQENGLLNGPNARQLRQKIGETLNIGYTNGKQLLKRAQQFGLTRDQILTALKK	-0.481
HMQILNVFSKHGIKPISPQIGDKFDPQLHEAMFEAPVPGTKAGDIIEVSSEGFMLYDRLLRPAHVGVSSN	0.0206
HMGEVISRSYPLLKTKAKPAEVSEALQKLIKAPATVTFDEKNEVFHINATRLQHTWAEGYFKGLHGK	0.0333
HMPDLQKAIDDLLQVVDKRLNTSFESILNEVNSEKEAVAFFLALLEAVRWGFVKASQSDEGIKIEK	-0.00989
HMKTMTTIRKGSRGDTVATLQRKLNLIADGIFGPITDEAVRDFQKSHGLAVDGIVGPKTWAALGVGS	0.0423
HMKRSVIVTAERAEVRQKADEGSALVFEAEKNVSLEYLEAAPGGWVKVRHLDGQSGFVRGNQI	-0.37
HMIIDTELMTRVMKFGFSQADASDLVAQHSDDLLRTAISRVEARAESKGMTPLETPAGYFRWTLQDLVRNP	-1.24
HMGYDLLFQQALGFHEQGRLNEAENIYRQILETAPNNPDILNLLGLIAQQKGLHAQAVDYFYQAIRL	-1.41
HMDEAETELIRRMVSEHPPTTKRERDIVQMRLRGYLFVEIGEAYGISFQRAAQIYNAAVEKIKEYWD	0.00188
HMKHEFSEEWLDWIKSNIADGQNKNGLFKVLLNHGYAYDAVREVMQYEPTVPLDELVDPLRA	-0.139
HMTYSAWIEKAYSELEKKGITEAELSDALDKRGINLEDLKLMGPDEAVKYQSEVEGVVLELSKSKE	-0.0868
HMEDVTLSLVVGEDLDGERLDVFLTWKLDRTRSQVQALIRDGKVRLEQGQRARPSMVVRSGMGISVSLEPR	-1.49
HMSVPRPSAVEVTSLVTGVRDLLPHLGEGYVERVLVEFGFKVDETINALLEGNLPKHLQDLDPSLTKEI	-0.662
HMRLPAISYSFARKHGVVLRLDGDRPVASLREGADPAILIEVKRHLDGAMGVEKVSEAAFDQLLSTTYA	-0.484
HMNQTEKSKITHNELLKAAHSLFIEQGFNHTTITDIVTRAGYSTGIFYKHYKTKTDILVELWTNYIE	-2.31
HMAGLYSLLLVELPMERLPEDLPAIKAAWLKTGDTEAFKVALQAMSSRGWTIAVPGKHRDTQMTQL	0.35
HMDRVTYPVSFNGKVRFQLELDAGMNAKEVETAALGHEKTAAQIEGKTIRKVIVVPGRIINIVV	-0.259
HMEQKELAPLVPQEDGSVKLTNLAGYSMREVAAALEGGNLSLIPIGSGTSWKQDPAPGTVLQPGNTVTVYF	0.00354
HMKIKKIWFDGDYIYGMDERNNTYRQSLLWYSKLRNASAEERERYTFSTIGIHWRELDEDVSFESF	-3.14
HMTKGDRIKARREELGLTQTDLAEAISSTKQNIYKYENNIISNIPSDKVEAIAEVLKISPAYLMGWGDE	0.0302

Sequence	soluble fraction (log2)
HMSQDPLETYYPQWSAAVKQSNPDAEIIRDTDGKYYVEGMTKNRVAVIYENPHLVRLVNATTNVHVE	0.0542
HMRLSAADLQSYLKGMDYPASRQDLIAHARGHNAPEEAVATLEQFSDRTYRSAADVSVEFGRE	0.25
HMDVSLVEQTQRDILEYISKNNSNAQLPKEQEFVGLLGVSRVVVREALSRLRALGIIETKRKKGTVVVVPE	-0.165
HMTQDFEPGGQVFSRGEWLTIIRVNKSNGAVSSVTTPNYSFLGYSGTMKVTPDRITDYKAPSAEEAAVAS	-0.281
HMVPEMIRDVISKSIRDMGVLPDHMQINERIALIQSLKKQQILGIKGAVAETARQLGISVPTVYRYMKKG	-0.362
HMNFDVETGLPLDSRLVVSGLIQRDGINSLKRYEGMIVYVESEAKNYQLVGGISNTDWAELS	-0.916
HMGSGLAAAEKIRKAHPEIKIVVATSLIDTQVLARAKAVGADSLWYKDGDEGTLMQVVRRTMAGDHIFP	-0.00704
HMEGLATRLRFLRQARGLSYHALARLSGVTHTALHQIEAGKNIPGLDTAEKIAMALDVDPRWFAYGRGDPS	-1.31
HMPGEIKKIPINSISYQDLKQHPYFDAYLAKQVIKYRETKGRIENIEQFREATRAYQSLIEKVTPYLDFE	0.14
HMDQESFGYFHVKYADVKQVADLVQKLNIPAVTWADERTRRLVALGSPATLQRISQVLNMVDL	-0.721
HMEVEIPSREALLGLVQKHLKPVSFDEFVSHFKLGDERQQVGIKRRLRAMERDGQLVYTKANSYGLPDRM	0.194
HMNLLQAHLLRLESAALLAEVREVDRQLSRWLHPLTPQSDVAIIDERNWEAAVARLTELGVHIEEGRW	-2.92
HMDSEEVYQMTKHKMDAAQISVAKRIHINLVLVKLLELHHLGYDLRHYHAQHHAFIKRLNLPEYFRFD	-1.66
HMDKSFYETFEKIGHGDFDKGLNHVWQHANDGNGTATLLLSKLFLEFGDLDNFEKYLNISAEQSNPVAMKI	-0.305
HMLAYQRTYEKILEDLRNDVYPVNSLLPPEPKLEEIYHVSRTTVRRAIAQLADEGYVKVKQGYGTVVLKN	-0.339
HMVEGMQFDRGYQSPYFVTNAEKMVAELDNPYILLVEKKISSMKELLPVLEPVAQQGKSLLIISEEVEG	-0.0564
HMAVTFPYTAYATDAVRLRERPSSSADVLAVIRKGDAVLVTGTDGNYAIVDYEGKRGYVVSSFIAT	-0.317
HMFQPFFENLRKASIPVSLREYLTFLEGMKKGLVTYDIEAFYFLARAAMVKDERNIDKFDRAFSATFKG	-0.287
HMNTELSPKVWDVVQEFILYRKEIKAPMTEHAVKLLIGQLQKLSSDPDEQIEILRQSIVNGWKGIFSLK	-0.183
HMTGAEGKLARYLLTVPSGEPLRLSATDLAKRLGISRASLYRAFQALEDARLIRREGKSMYVLDPAGLEGV	-0.289
HMSEEIKVPNFVGSTFEKAQALAQETGLEIARGEDVYSPDQEEGKITSQNPTADSVVSPGKLITVYVSKG	0.00159
HMSTQGRRIEILRHLTQTKKKADVNFVELGRTFGTSDTTIRKDLDWLIKNEYWENHGEWKPTQAGLNMI	0.0347
HMGDVPESLVEKAGHSINAKIISAWGMTETGASTMTRPQDDPERAIYSDGVVLPLMDVRVVNDAGLA	0.0119
HMGDFLLQVDFPPALLEMLPEGKRQAAIGVLSHDPRPAYQRTPGRVYGLNFAGHNIRFAVSENLLTVLEV	-2.08
HMSAQPMEYSRFYSDVTQGRVAEVEIEGREINGRLSTGERFKTFSPETDNKALIGHLLDNGVVIEGKPP	0.234

Sequence	soluble fraction (log2)
HMKVNMIIVMKPGARETDIQEVSNVLKSAGLGVHISKGTERTIIGVIGDKRLLNGIPLDLMHGVDKLVPIM	0.0193
HMHPQISVEGVLPLKEAVEFVEREIISHAYSRYRATREVARHLGIDPSTVLRKAAKYGITVEPGKN	-0.658
HMKYNYEAQQSDELSLVKGSRIHVLEKSSDGWWKGEIDNVVGWFPS	-0.205
HMNKEKLLEMFESMSIIIVQSLEEKEQTEDRIETELFNEAKTPRYSTLTKQDIQSVIRNILITVGV	-1.84
HMPLLSEWDAALEELWAKLGDVPMDPETERMDAPFLGFPAGTPREDIWHWFDERHSKGVAHLLYG	-2.37
HMLVDWNYLEGKRGVTTTPLTPSGKARFGDDVVNVLSDGVLVSTGTPVRVLQVLGNRVLVEPLDG	0.0957
HMSSLDTLTARETQILAEMAQGKNNAAIAAAVSVSERAVEKHTNSIFAKLGLSEEKDVNRRVMAVLLFLGR	-3.28
HMEYYWHQLKGLEVVNTRGESLGRVRRLLETGANDVLVLEGEQERLIPYVPDTIKQVDLAKGLIEVAWDRD	-0.0728
HMPATPDATVQAVQQRLNELGYDVGSADGLMGRGTRSAIIAFQQDRGLAATGVADQALLLQLQP	0.208
HMSFNISPTKKLILELIMNGTAAVEAIAVKAGISKGMAYNHLRELRSMGYITDEGGYKITDSGRLAV	-0.414
HMNVVINNELVSLMVEAMKDGVSSKSIQEEFEGYKISGKTITKKVLTAHVNKALEVFADMQE	-0.213
HMTDVGLEAAKAAALKHAGLSADQVTGLTAKLDWDDGQRVYEVDFWQGSTEYEYEINADGTVRQYESEAH	0.228
HMIEKGSDALEKELRKNNLSINEFLTNKNIDIILDELKLKDIDDLYVNIALGKYTPNQIIKIVNK	0.237
HMGAARVTPLYNLRLREGPSTATARLDVVPRGTTLEVRAWDETGDWAQVEYRGQIGWIAAWLAEVEGEAP	-0.136
HMRMTTEQLMSFLKQHFPQVADNFTVRISDEGRLSVEMPVNDKHLRPGGTVSGPSMFALADVAFYLAILQ	-1.16
HMTNLKALRESKGVSQQTVADYLGITRQAYGNYETGKRQADYAALLRLAAFFGVSVDALLQP	-0.299
HMIVDARNREINLGSHVRYVDTGTVGEVTDSKVENDASWVKIDKTNLWYLANKLELLNDEDFKT	0.0653
HMQITTVSPKNYAEAELIGQRFREGNPVVMDLSKLDSDLGQRLVDFASGLVFALNGTVERIAKKVFLLSP	-0.943
HMHVSIAENIRRIRTQHDMTQEEFGKVAAVSAMAVSQWENGRAVPRMGAVQRIADYFNISKGEVID	-0.543
HMSLTGFYNLTFKQADRLSVIDEAGEEVYKQAIAMGSTTKTIDLSALNAGVYFIRIYNGEVIAQEKIVLN	-1.25
HMLDFGQEDSEAVSEIILVLGRYWMDFSHKKYPEAEGSALRHKGISHIFTVLKPYLTSATAQLIEQRLQQ	0.00235
HMKHTVSVDRLQPGVFVSLGGLSWLDHPFLLNRFRLTDHDQIKVLRSLGVKEIEWDPTRSTAQPLPE	-0.437
HMQIVHKHLQLQPDQGALRAALYSHKAVVAEQVNEQGAINLEIKLAESDFLRLLKSSGLKLQDLVSLS	-0.205
HMVAISNTSGLAGVAYWIQSNIPKGIDIRKDNPGIVTIKNWIDEEYRKGRTTTISEEEMFKLVREYMPEL	-1.77
HMTTPAAISKIKKLEEAKRLLATTTYSMKEIAVKLKYKSHTHFGMDFKNNTGMTPAEYRKAIKAKREKQMN	-0.0571
